Experimental findings from patent publication US20030124602A1 (Novartis, published 2003) are described below.

B1: Gal4-AD-CTMP fusion protein encoded by pGADGH.CTMP (CTMPL fused to the GAL4 transcriptional activation domain) (other, not shown: small tags and cut ends)
chain: NSARARASAAPRPGAMLRSCAARLRTLGALCRPPVGRRLPGSEPRPELRSFSSEEVILKDCSVPNPSWNKDLRLLFDQFMKKCEDGSWKRLPSYKRTPTEWIQDFKTHFLDPKLMKEEQMSQAQLFTRSFDDGLGFEYVMFYNDIEKRMVCLFQGGPYLEGPPGFIHGGAIATMIDATVGMCAMMAGGIVMTANLNINYKRPIPLCSVVMINSQLDKVEGRKFFVSCNVQSVDEKTLYSEATSLFIKLNPAKSLT
notes: Yeast two-hybrid prey recovered from a HeLa cDNA library; also called this clone
B3: GAL4 DNA binding domain fusion of human PKB alpha amino acids 411-480 (pGBT-CT) (other, yeast;human, UniProt P04386 1-147, looked up)
chain: MKLLSSIEQACDICRLKKLKCSKEKPKCAKCLKNNWECRYSPKTKRSPLTRAHLTEVESRLERLEQLFLLIFPREDLDMILKMDSLQDIKALLTGLFVQDNVNKDAVTDRLASVETDMPLTLRQHRISATSSSEESSNKGQRQLTVSIVWQHVYEKKLSPPFKPQVTSETDTRYFDEEFTAQMITITPPDQDDSMECVDSERRPHFPQFSYSASGTA
notes: range 1-147;range 411-480

The target in test [1] is T1, GAL4 DNA binding domain fusion of human PKB alpha amino acids 1-480 (pGBT-PH-KIN-CT, full-length PKB) (yeast; human, UniProt P04386 1-147; P31749 1-480).
T1 construct: range 1-147;range 1-480
As to the kind of experiment: yeast two-hybrid, His auxotrophy and lacZ reporters.

Test [2] deals with T2, GAL4 DNA binding domain fusion of human PKB alpha amino acids 147-480 (pGBT-KIN-CT) (yeast; human, UniProt P04386 1-147; P31749 147-480).
T2 construct: range 1-147;range 147-480; Bait of the library screen; also called deltaPH
The test is described as above.

Test [3] concerns the target B3. The test is described as follows: yeast two-hybrid.
In test [4] the target is T1, GAL4 DNA binding domain fusion of human …. As to the kind of experiment: yeast two-hybrid.
The target in test [5] is T2, GAL4 DNA binding domain fusion of human …. As to the kind of experiment: yeast two-hybrid.
Test [6] has as its target B1. The test is described as follows: yeast two-hybrid, His auxotrophy and lacZ reporters.

With B1, the binding result in test [1] and in test [2] was “binds” each time.

B2: human Lamin C (control plasmid pLAM5') (other, UniProt P02545-2 66-230, looked up)
chain: SEEVVSREVSGIKAAYEAELGDARKTLDSVAKERARLQLELSKVREEFKELKARNTKKEGDLIAAQARLKDLEALLNSKEAALSTALSEKRTLEGELHDLRGQVAKLEAALGEAKKQLQDEMLRRVDAENRLQTMKEELDFQKNIYSEELRETKRRHETRLVEID
notes: Two-hybrid control protein; Lamin C is an isoform of the LMNA entry
Take B2: the binding result in test [3], in test [4] and in test [5] was “no binding” throughout.

Consider B3, for which the binding result in test [6] is listed as “binds”.
